Results: publication PMC11696352

Target: importin α5 (UniProt P52294)
Assay: Flag co-IP, immunoblot
Settings: reference: Flag-GCLM wild type; sites T17

binding against the reference: weaker
Substance: GCLM (glutamate-cysteine ligase modifier subunit) (from UniProt P48507) Flag-GCLM T17A
